The target of experiment [1] is T1, 白介素-6 (IL-6) (UniProt P05231 30-212).
T1 construct: also called Interleukin-6; 抗原IL-6
Kind of experiment: SPR, IL-6 amine-coupled to CM5 chip, nanobody injected. (In general: In SPR one partner is held on a chip, and binding of the other changes the refractive index at the surface.)

Experiment [2] concerns the target T1, 白介素-6 (IL-6). In words: SPR, IL-6 amine-coupled to CM5 chip, polypeptide injected.

What is called Kd is the constant that tells how readily two partners part at equilibrium. Low values mean tighter binding, high ones weaker binding. Usually koff stands for the first-order rate constant of dissociation. Low values mean a long-lived complex, high ones a short-lived complex.

B1: 纳米抗体CNb20-2 (VHH)
VHH: QVQLVESAGGLVQPGGSLRLSCAASGRFTGGSPMGWYRQAPGKRRELVADIMGRGGSNTYADSVKGRFTISRDNAKNTVYLQMNSLKPEDTAVYYCAEAERVSGLLLEVVAEPRGDDYWGQGTQVTVSS
As for B1, the Kd in experiment [1] was 0.0423 nM.

B2: 人源化二价多肽hbvCNb20-1 (VHH)
chain: EVQLVESGGGSVQAGGSLRLSCAASSGILEIFNAMSWFRQAPGKEREWVSAIMGSPYGSTEYYADSVKGRFTFSQDNAKNTVYLQMDSLRPEDTATYYCHSAGYDPRGDDYWGQGTLVTVSSGGGGSGGGGSGGGGSEVQLVESGGGSVQAGGSLRLSCAASSGILEIFNAMSWFRQAPGKEREWVSAIMGSPYGSTEYYADSVKGRFTFSQDNAKNTVYLQMDSLRPEDTATYYCHSAGYDPRGDDYWGQGTLVTVSS
In experiment [2], B2 came in with a Kd of 0.0807 nM and a koff of 0.000184 s⁻¹.

B3: 纳米抗体CNb20-1 (VHH)
VHH: QVQLQESGGGSVQAGGSLRLSCAASSGILEIFNAMAWFRQAPGKEREWVARIMGSPYGSTEYYADSVKGRFTFSQDNAKNTVYLQMDSLEPEDTATYYCHSAGYDPRGDDYWGQGTQVTVSS
Consider B3, for which, in experiment [1], the equilibrium dissociation constant (Kd) came to 0.0111 nM.

B4: 人源化纳米抗体hCNb20-1 (VHH)
VHH: EVQLVESGGGSVQAGGSLRLSCAASSGILEIFNAMSWFRQAPGKEREWVSAIMGSPYGSTEYYADSVKGRFTFSQDNAKNTVYLQMDSLRPEDTATYYCHSAGYDPRGDDYWGQGTLVTVSS
notes: Humanised variant of CNb20-1, purified on Ni Sepharose
As for B4, in experiment [1], binding was put at a Kd of 0.0995 nM.

The record behind these values is patent CN112778416A (KANGYUAN MEDICAL TECH DALIAN CO LTD, dated 2021).
